Drawing on patent WO2016038310A1, this text covers Kd for one molecule.

Assay [1] concerns the target les eCG et hCG (equine and human chorionic gonadotropins). Description: ELISA saturation binding, Kd estimated with GraphPad Prism.
For assay [2], the target named is les FSH ovine et humaine (ovine and human FSH). The description is as above.

Several values for one entry are separate records, joined by “and”; a condition that tells them apart may be missing. Equal entries are not always repeated.

B1: scFv A8 (scFv)
scFv: QVQLQQSGGGLVQPGGSRKLSCAASGFTFSDFGTHWIRQAPEKGLEWVAYISSGSSTRYYADTVKGRFTISRDDPKNTLFLQMTSLRSEDTAMYYCARSYDGYHVPSFAYWGQGTLVTVSAGGGGSGGGGSGGGGSDIQMTQTPLSLSVSLGDQASISCRSSQNIVHSNGNTYLEWYLQKPGQSPKLLIYRVSNRFSGIPDRFSGSSSGTDFTLKISRVEAEDLGVYYCFQGSHVPLTFGAGTKLELKHHHHHH
What is called Kd is the equilibrium constant for the complex coming apart. For B1, the Kd in assay [1] was 5.78 µM and 22.2 µM; in assay [2] it was 3.12 µM and 4.62 µM.
